This is an account of results in article PMC10899400, “2′-19F labelling of ribose in RNAs: a tool to analyse RNA/protein interactions by NMR in physiological conditions”.

This data set deals with Sam68 QUA1-KH (UniProt Q07666 96-260). The experiment in a line: EMSA; 40 uM RNA, 10-200 uM protein; NMR buffer 20 mM NaHPO4 pH 6.5, 100 mM NaCl, 1 mM beta-mercaptoethanol, 50 mM L-Arg, 50 mM L-Glu; 19F NMR of free RNA at 303 K, with or without 40% HeLa nuclear extract; EMSA 14% PAGE in TBE pH 7.6, 4 C. The following applies: protein: recombinant; tags: N-terminal His6-TEV (pLEICS-01), TEV-treated; chain copies: 2; single-stranded. (In general: A gel shift assay detects complexes by their altered migration in electrophoresis.)
Sam68 QUA1-KH, sequence (Q07666 96-260): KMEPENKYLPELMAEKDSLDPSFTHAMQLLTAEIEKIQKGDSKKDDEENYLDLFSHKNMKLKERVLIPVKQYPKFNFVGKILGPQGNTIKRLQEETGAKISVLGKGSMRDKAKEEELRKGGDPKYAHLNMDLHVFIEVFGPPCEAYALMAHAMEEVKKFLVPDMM

B1: unmodified RNA (SMN2 21-mer) (ssRNA)
RNA: UUACAGGGUUUUAGACAAAAU
With B1, the binding result was “binds”.
